Experimental data reported in article PMC2903414 (The Journal of Biological Chemistry, 2010).

Target: Flag-tagged full-length mouse sphingosine 1-phosphate receptor-1 (S1P1) (mouse, UniProt O08530 1-382)
Assay: co-IP

Sequence of Flag-tagged full-length mouse sphingosine 1-phosphate receptor-1 (S1P1) (O08530 whole entry): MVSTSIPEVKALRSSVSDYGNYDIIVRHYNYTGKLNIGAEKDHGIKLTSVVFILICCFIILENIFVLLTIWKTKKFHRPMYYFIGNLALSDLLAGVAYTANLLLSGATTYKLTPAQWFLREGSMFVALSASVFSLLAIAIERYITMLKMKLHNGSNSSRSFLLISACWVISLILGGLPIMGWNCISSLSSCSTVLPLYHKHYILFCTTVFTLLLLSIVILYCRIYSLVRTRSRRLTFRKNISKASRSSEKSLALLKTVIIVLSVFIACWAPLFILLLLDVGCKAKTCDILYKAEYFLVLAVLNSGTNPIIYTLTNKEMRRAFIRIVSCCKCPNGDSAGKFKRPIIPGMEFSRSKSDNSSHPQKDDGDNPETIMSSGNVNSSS

fold interaction compared with the control proteins NKRp1A and S1P3: 10 fold
B1: HA-tagged mouse CD69 (natural protein, UniProt P37217 1-199, looked up)
chain: MDSENCSITENSSSHLERGQKDHGTSIHFEKHHEGSIQVSIPWAVLIVVLITSLIIALIALNVGKYNCPGLYEKLESSDHHVATCKNEWISYKRTCYFFSTTTKSWALAQRSCSEDAATLAVIDSEKDMTFLKRYSGELEHWIGLKNEANQTWKWANGKEFNSWFNLTGSGRCVSVNHKNVTAVDCEANFHWVCSKPSR
